Entries after “also recorded” stand apart in the source; their conditions may differ. Square brackets hold non-standard residues; d marks the D form. Ends that are not written are not given here. Aib = CC(C)(N)C(=O)O
Legend:
[1] = Kinetic aggregation assay (turbidity at 405 nm) of IAPP peptide fragment and alanine mutants; format: physicochemical; conditions: 2 mM peptide, 10 mM Tris pH 7.2, 2% DMSO, room temperature
Description: To study self-assembly of the IAPP peptide derived fragments, aggregation and insolubilization kinetics were monitored using turbidity measurements at 405 nm.
Kinetic aggregation assay—Fresh peptide stock solutions were prepared by dissolving lyophilized form of the peptides in DMSO, a disaggregating solvent, at a concentration of 100 mM. To avoid any pre-aggregation, fresh stock solutions were prepared prior to each and every experiment. Peptide stock solutions were diluted into assay buffer and plated in 96-well plates as follows: 2 μl of peptides stock solutions were added to 98 μl of 10 mM Tris pH 7.2, resulting in a 2 mM final concentration of the peptide in the presence of 2% DMSO. Turbidity data was measured at 405 nm. A buffer solution including 2% DMSO was used as a blank. Turbidity was measured at room temperature over several time points.

[2] = Aggregate mean particle size by dynamic light scattering; format: physicochemical; conditions: 100 μM peptide, 1% DMSO, 10 mM Tris pH 7.2
Description: Therefore, the average size of the aggregates, formed by the various peptides, was determined using dynamic light scattering (DLS) experiments.
Method—Freshly prepared peptide stock solutions at a concentration of 10 mM were diluted in 10 mM Tris buffer pH 7.2 and further filtrated through a 0.2 μm filter to a final concentration of 100 μM peptide and 1% DMSO. Particle size measurement was conducted with a laser-powered ALV-NIBS/HPPS non-invasive backscattering instrument. Autocorrelation data was fitted using the ALV-NIBS/HPPS software to derive average apparent hydrodynamic diameters.

[3] = Congo red binding assay with polarization microscopy (Example 4); format: physicochemical
Description: Congo red (CR) staining combined with polarization microscopy was utilized to test amyloidogenicity of the peptides of the present invention. […] Invest. 31:232-8; Lansbury (1992) Biochemistry 31:6865-70]. […] Staining was effected by the addition of 1 mM CR in 10 mM Tris buffer pH 7.2 followed by a 1 minute incubation. To remove excess CR, slides were rinsed with double-distilled water and dried. Saturated CR solutions solubilized in 80% ethanol (v/v) were used for poorly aggregating peptides. In such cases, staining was effected without rinsing. Birefringence was determined using a WILD Makroskop m420 (×70) equipped with a polarizing stage.

[4] = Negative staining electron microscopy of fibril formation (Example 5); format: physicochemical; conditions: 2 mM peptide incubated overnight
Description: Method—Peptide solutions (2 mM peptide in 10 mM Tris buffer pH 7.2), were incubated overnight at room temperature. Fibrils formation was assessed using 10 μl sample placed on 200-mesh copper grids, covered with carbon-stabilized formvar film (SPI Supplies, West Chester Pa.). Following 20-30 seconds of incubation, excess fluid was removed and the grids were negatively stained with 2% uranyl acetate in water. Samples were viewed in a JEOL 1200EX electron microscope operating at 80 kV.

[5] = target: T1, MBP-IAPP1-37 (Homo sapiens, UniProt P10997); experiment: Binding of MBP-IAPP to membrane-spotted peptide arrays; conditions: membrane-bound hIAPP decamers, 10 μg/ml MBP-IAPP1-37, densitometry, semiquantitative
T1 construct: incubated in the presence of 10 μg/ml MBP-IAPP1-37 at 4° C. for 12 h; made in house; host or cells: E. coli BL21(DE3)
T1 sequence (P10997 34-70 limits assumed): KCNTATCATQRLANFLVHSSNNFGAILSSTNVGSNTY
Text: IAPP peptide array construction—Decamers corresponding to consecutive overlapping sequences of hIAPP1-37 SEQ ID NOs. 61-88) were synthesizes on a cellulose membrane matrix using the SPOT technique (Jerini AG, Berlin, Germany). The peptides were covalently bound to a Whatman 50 cellulose support (Whatman, Maidstone, England) via the C-terminal amino-acids. N-terminal acetylation was used for peptide scanning because of higher stability to peptide degradation, and better representation of the native recognition motif.
Thereafter, cellulose membrane was incubated in the presence of 10 μg/ml MBP-IAPP1-37 at 4° C. for 12 h in the same blocking buffer. The cellulose membrane was then washed repeatedly with 0.05% Tween 20 in TBS. […] HRP-conjugated goat anti mouse antibodies (Jackson Laboratories, USA) were used as a secondary antibody. Immunoblots were developed using the Renaissance western blot Chemiluminescence Reagent (NEN, USA) according to Manufacturer's instructions and signal was quantified using densitometry. Regeneration of the cellulose membrane for reuse was carried out by sequential washing with Regeneration buffer I including 62.5 mM Tris, 2% SDS, 100 Mm 2-mercaptoethanol, pH 6.7, and Regeneration buffer II including 8 M urea, 1% SDS, 0.1% 2-mercaptoethanol. Efficiency of the washing steps was monitored by contacting the membrane with the chemiluminescence reagent, as described.
To determine the specific role of the phenylalanine residue in IAPP-self assembly, a membrane-based binding assay was preformed in order to systematically explore the molecular determinants that facilitate the ability of the full-length hIAPP to recognize the “basic amyloidogenic unit”. To this end, the ability of MBP-IAPP (see Example 6) to interact with an array of peptides in which the phenylalanine position was systematically altered (SEQ ID NOs. 91-110), was addressed.

[6] = target: T2, hIAPP1-37 (Homo sapiens, UniProt P10997); experiment: Thioflavin T fluorescence assay of hIAPP fibrillization (sodium acetate buffer); format: biochemical; conditions: 4 μM hIAPP1-37, 40 μM inhibitor, 10 mM sodium acetate pH 6.5
T2 construct: purchased CalBiochem (La Jolla Calif., USA)
T2 sequence (P10997 34-70 limits assumed): T1 sequence (P10997 34-70 limits assumed)
Description: Thioflavin T fluorescence assay—hIAPP fibrillization was monitored by Thioflavin T dye binding assay. hIAPP1-37 stock solution was diluted to a final concentration of 4 μM in 10 mM sodium acetate buffer (pH 6.5) with or without inhibitors (40 μM), and a final concentration of HFIP of 1% (vol). Immediately after dilution, sample was centrifuged for 20 minutes in 20,000×g at 4° C. and the supernatant fraction was used for fluorescence measurements. In every measurement ThT was added to a 1 ml sample at a final concentration of 3 μM and measurements were effected by using Perkin-Elmer (excitation 450 nm, 2.5 nm slit; emission 480 nm 10 nm slit). Background was subtracted from all samples.

[7] = Kinetic aggregation assay, turbidity at 405 nm (Example 8); format: physicochemical; conditions: hIAPP 22-29 analogues incubated for 1 week
[8] = Transmission electron microscopy of wild-type and Aib modified hIAPP peptides; format: physicochemical; conditions: 5 mM peptide, aged 4 days (wt) or 10 days (modified)
Description: Peptide solutions—freshly prepared stock solutions were prepared by dissolving the lyophilized form of the peptides in dimethyl sulfoxide (DMSO) at a concentration of 100 mM. To avoid any pre-aggregation, fresh stock solutions were prepared for each experiment. […] Transmission Electron Microscopy—a 10 μL sample of 5 mM peptide solution in 10 mM Tris buffer, pH 7.2 aged for 4 days (for wt peptides) and for 10 days (for modified peptides) was placed on 400-mesh copper grids (SPI supplies, West Chester Pa.) covered by carbon-stabilized Formvar film. After 1 minute, excess fluid was removed, and the grid was then negatively stained with 2% uranyl acetate in water for another 2 minutes. Samples were viewed in a JEOL 1200EX electron microscope operating at 80 kV.

[9] = Congo Red staining and birefringence of wild-type and Aib substituted IAPP peptides; format: physicochemical; conditions: 5 mM peptide aged for 10 days
Description: Congo Red Staining and Birefringence—A 10 μL suspension of 5 mM peptide solution in 10 mM Tris buffer, pH 7.2 aged for 10 days was allowed to dry overnight on a glass microscope slide. Staining was performed by the addition of a 10 μL suspension of saturated Congo Red (CR) and NaCl in 80% ethanol (v/v) solution. The solution was filtered via 0.2 μm filter. The slide was then dried for a few hours. Birefringence was determined with a SZX-12 Stereoscope (Olympus, Hamburg, Germany) equipped with cross polarizers. 100× magnification is shown.

[10] = FT-IR of Aib-modified IAPP peptide fragments; format: physicochemical; conditions: two week aged peptide solutions
Description: Fourier Transform Infrared Spectroscopy—Infrared spectra were recorded using a Nicolet Nexus 470 FT-IR spectrometer with a DTGS detector. Samples of two week aged peptide solutions, were suspended on a CaF2 plate and dried by vacuum. The peptide deposits were resuspended with D2O and subsequently dried to form thin films. The resuspension procedure was repeated twice to ensure maximal hydrogen to deuterium exchange. The measurements were taken using a 4 cm^−1 resolution and 2000 scans averaging. The transmittance minima values were determined by the OMNIC analysis program (Nicolet).

[11] = peptide solutions incubated for four days

## G3A: alanine-scan mutant of the hIAPP peptide fragment, SEQ ID NO: 4 (NFAAILSS)
[1]
  kinetics of aggregation (turbidity at 405 nm): essentially the same profile as that of wild type peptide
[2]
  apparent hydrodynamic diameter of the structures formed: very similar hydrodynamic diameters
[3]; [11]
  Congo red binding and birefringence: bound CR and exhibited the characteristic green/gold birefringence
[4]
  fibril structures by electron microscopy: tangled net-like structures

## hIAPP3-12: membrane-spotted decamer of hIAPP residues 3-12 (NTATCATQRL)
[5]
  binding to MBP-hIAPP1-37: no binding

## Gln-Lys-Leu-Val-Phe-Phe [EG05, reference compound]
[6]
  inhibition of IAPP fibrillization (ThT fluorescence at plateau): effective inhibition of IAPP fibrillization

## N1A: alanine-scan mutant of the hIAPP peptide fragment, SEQ ID NO: 2 (AFGAILSS)
[1]
  kinetics of aggregation (turbidity at 405 nm): higher kinetics of aggregation
[2]
  apparent hydrodynamic diameter of the structures formed: Smaller structures
[3]; [11]
  Congo red binding and birefringence: bound CR and exhibited the characteristic green/gold birefringence
[4]
  fibril structures by electron microscopy: tangled net-like structures

## NAGAILSS
[7]
  endpoint turbidity: lower extent

## NIGAILSS
[7]
  endpoint turbidity: some low degree of turbidity

## hIAPP1-10: membrane-spotted decamer of hIAPP residues 1-10 (KCNTATCATQ)
[5]
  binding to MBP-hIAPP1-37: no binding

## ANFLV
[8]
  structures by electron microscopy: formed fibrillar structures
[9]
  Congo Red birefringence: typical yellow-green birefringence
[10]
  secondary structure by FT-IR: typical of β-sheet spectra

## D-Pro-Aib [EG28]
[6]
  inhibition of IAPP fibrillization (ThT fluorescence at plateau): inhibition potential

## wild type peptide: wild-type eight amino-acid hIAPP peptide fragment, NFGAIL motif followed by two serines, SEQ ID NO: 1 (NFGAILSS)
[2]
  apparent hydrodynamic diameter of the structures formed: very similar hydrodynamic diameters
[3]; peptide solution incubated for 14 days
  Congo red binding and birefringence: significant CR birefringence
[3]; [11]
  Congo red binding and birefringence: bound CR and exhibited the characteristic green/gold birefringence
[4]
  fibril structures by electron microscopy: tangled net-like structures

## NLGAILSS
[7]
  endpoint turbidity: lower extent

## Aib-NF-Aib-VH ([Aib]NF[Aib]VH)
[8]
  structures by electron microscopy: no fibrillar structures were evident
[9]
  Congo Red birefringence: no birefringence
[10]
  secondary structure by FT-IR: characteristic to a random coil conformation

## NVGAILSS
[7]
  endpoint turbidity: lower extent

## I5A: isoleucine to alanine mutant of the hIAPP peptide fragment, SEQ ID NO: 5 (NFGAALSS)
[1]
  kinetics of aggregation (turbidity at 405 nm): reduced the kinetics of aggregation but did not abolish it completely
[2]
  apparent hydrodynamic diameter of the structures formed: Smaller structures
[3]; [11]
  Congo red binding and birefringence: bound CR and exhibited rare but characteristic birefringence
[4]
  fibril structures by electron microscopy: lower in comparison to that of wild type; also recorded: More distinct structures and longer fibrils, albeit less frequent

## L6A: leucine to alanine mutant of the hIAPP peptide fragment, SEQ ID NO: 6 (NFGAIASS)
[1]
  kinetics of aggregation (turbidity at 405 nm): reduced the kinetics of aggregation but did not abolish it completely
[2]
  apparent hydrodynamic diameter of the structures formed: Smaller structures
[3]; [11]
  Congo red binding and birefringence: bound CR and exhibited rare but characteristic birefringence
[4]
  fibril structures by electron microscopy: lower in comparison to that of wild type; also recorded: More distinct structures and longer fibrils, albeit less frequent

## Aib-NF-Aib-V ([Aib]NF[Aib]V)
[8]
  structures by electron microscopy: no fibrillar structures were evident
[9]
  Congo Red birefringence: no birefringence
[10]
  secondary structure by FT-IR: characteristic to a random coil conformation

## ANFLVH
[8]
  structures by electron microscopy: formed fibrillar structures
[9]
  Congo Red birefringence: typical yellow-green birefringence
[10]
  secondary structure by FT-IR: typical of β-sheet spectra

## hIAPP2-11: membrane-spotted decamer of hIAPP residues 2-11 (CNTATCATQR)
[5]
  binding to MBP-hIAPP1-37: third binding spot

## D-Phe-D-Pro [EG29]
[6]
  inhibition of IAPP fibrillization (ThT fluorescence at plateau): inhibition potential
